From publication PMC10786891, “Massively parallel profiling of RNA-targeting CRISPR-Cas13d”
Changes are numbered by the printed parent chain. Names and notes keep the numbering of the source.

T1: EsCas13d, nuclease-dead (Eubacterium siraeum, UniProt B0MS50, R295A;H300A;R849A;H854A)
T1 sequence: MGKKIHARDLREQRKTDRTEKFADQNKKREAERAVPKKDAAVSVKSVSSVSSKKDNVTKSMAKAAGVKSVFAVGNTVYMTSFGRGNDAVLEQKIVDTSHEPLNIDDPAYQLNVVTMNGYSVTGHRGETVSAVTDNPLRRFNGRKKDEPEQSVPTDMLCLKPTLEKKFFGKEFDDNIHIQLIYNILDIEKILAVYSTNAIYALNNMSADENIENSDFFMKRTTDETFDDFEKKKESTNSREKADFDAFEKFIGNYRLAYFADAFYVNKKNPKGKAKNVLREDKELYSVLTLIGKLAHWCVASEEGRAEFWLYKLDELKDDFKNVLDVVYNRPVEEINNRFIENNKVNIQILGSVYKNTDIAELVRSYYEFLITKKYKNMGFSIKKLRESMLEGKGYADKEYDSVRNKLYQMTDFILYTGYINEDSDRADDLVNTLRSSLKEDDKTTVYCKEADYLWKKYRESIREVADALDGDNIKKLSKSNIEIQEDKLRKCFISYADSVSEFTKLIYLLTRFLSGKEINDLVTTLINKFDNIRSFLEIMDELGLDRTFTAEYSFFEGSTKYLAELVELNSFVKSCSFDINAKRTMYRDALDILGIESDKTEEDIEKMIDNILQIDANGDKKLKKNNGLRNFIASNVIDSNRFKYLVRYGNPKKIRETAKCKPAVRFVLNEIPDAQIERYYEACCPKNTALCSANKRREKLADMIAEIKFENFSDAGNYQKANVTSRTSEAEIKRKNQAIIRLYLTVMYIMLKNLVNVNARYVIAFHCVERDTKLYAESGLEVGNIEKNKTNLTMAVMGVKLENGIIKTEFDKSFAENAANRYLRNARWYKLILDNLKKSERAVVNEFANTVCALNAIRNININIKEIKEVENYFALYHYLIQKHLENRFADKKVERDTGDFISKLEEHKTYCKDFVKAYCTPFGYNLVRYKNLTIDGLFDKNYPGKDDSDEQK

B1: target 1 MT 5'PFS GGC 3'PFS AGU (mixed)
RNA 1: CACCCGUGCAAAAAUGCAGGGGUCUAAAACUGAGCGGAUAACCUCUCUAUGG
RNA 2: GGGAAUGGAUCCACAUCUACGAAUUCGGCCCAUAGAGAGGUUAUCCGCUCAAGUAGAUCGGAAGAGCACACGU
B2: target 1 MT 5'PFS CCG 3'PFS CGG (mixed)
RNA 1: B1 RNA 1
RNA 2: B1 RNA 2 with G27C, G28C, C29G, A52C, U54G
B3: target 1 MT 5'PFS AAG 3'PFS ACC (mixed)
RNA 1: B1 RNA 1
RNA 2: B1 RNA 2 with G27A, G28A, C29G, G53C, U54C
B4: target 1 MT 5'PFS CAG 3'PFS AAA (mixed)
RNA 1: B1 RNA 1
RNA 2: B1 RNA 2 with G27C, G28A, C29G, G53A, U54A
B5: target 1 MT 5'PFS GAC 3'PFS AUC (mixed)
RNA 1: B1 RNA 1
RNA 2: B1 RNA 2 with G28A, G53U, U54C
B6: target 1 MT 5'PFS AAC 3'PFS UCU (mixed)
RNA 1: B1 RNA 1
RNA 2: B1 RNA 2 with G27A, G28A, A52U, G53C
B7: target 1 MT 5'PFS GUU 3'PFS UAC (mixed)
RNA 1: B1 RNA 1
RNA 2: B1 RNA 2 with G28U, C29U, A52U, G53A, U54C
B8: target 1 MT 5'PFS AGG 3'PFS CCG (mixed)
RNA 1: B1 RNA 1
RNA 2: B1 RNA 2 with G27A, C29G, A52C, G53C, U54G
B9: target 1 MT 5'PFS ACU 3'PFS UCU (mixed)
RNA 1: B1 RNA 1
RNA 2: B1 RNA 2 with G27A, G28C, C29U, A52U, G53C
B10: target 1 MT 5'PFS AAG 3'PFS ACA (mixed)
RNA 1: B1 RNA 1
RNA 2: B1 RNA 2 with G27A, G28A, C29G, G53C, U54A
B11: target 1 MT 5'PFS GUU 3'PFS UAA (mixed)
RNA 1: B1 RNA 1
RNA 2: B1 RNA 2 with G28U, C29U, A52U, G53A, U54A
B12: target 1 MT 5'PFS GAC 3'PFS AUA (mixed)
RNA 1: B1 RNA 1
RNA 2: B1 RNA 2 with G28A, G53U, U54A
B13: target 1 MT 5'PFS GAC 3'PFS AUU (mixed)
RNA 1: B1 RNA 1
RNA 2: B1 RNA 2 with G28A, G53U
B14: target 1 MT 5'PFS GUU 3'PFS UAG (mixed)
RNA 1: B1 RNA 1
RNA 2: B1 RNA 2 with G28U, C29U, A52U, G53A, U54G
B15: target 1 MT 5'PFS ACC 3'PFS UCU (mixed)
RNA 1: B1 RNA 1
RNA 2: B1 RNA 2 with G27A, G28C, A52U, G53C
B16: target 1 MT 5'PFS UCA 3'PFS CAU (mixed)
RNA 1: B1 RNA 1
RNA 2: B1 RNA 2 with G27U, G28C, C29A, A52C, G53A
B17: target 1 A1G,A16U (mixed)
RNA 1: B1 RNA 1
RNA 2: B1 RNA 2 with G28U, C29A, A36U, A51G, A52C, G53C, U54G
B18: target 1 MT 5'PFS ACC 3'PFS UCC (mixed)
RNA 1: B1 RNA 1
RNA 2: B1 RNA 2 with G27A, G28C, A52U, G53C, U54C
B19: target 1 MT 5'PFS AAG 3'PFS ACU (mixed)
RNA 1: B1 RNA 1
RNA 2: B1 RNA 2 with G27A, G28A, C29G, G53C
B20: target 1 MT 5'PFS GAA 3'PFS CGU (mixed)
RNA 1: B1 RNA 1
RNA 2: B1 RNA 2 with G28A, C29A, A52C
B21: target 1 MT 5'PFS AUG 3'PFS UCU (mixed)
RNA 1: B1 RNA 1
RNA 2: B1 RNA 2 with G27A, G28U, C29G, A52U, G53C
B22: target 1 MT 5'PFS AGC 3'PFS AUC (mixed)
RNA 1: B1 RNA 1
RNA 2: B1 RNA 2 with G27A, G53U, U54C
B23: target 1 MT 5'PFS UCA 3'PFS CAC (mixed)
RNA 1: B1 RNA 1
RNA 2: B1 RNA 2 with G27U, G28C, C29A, A52C, G53A, U54C
B24: target 1 MT 5'PFS AAA 3'PFS AAG (mixed)
RNA 1: B1 RNA 1
RNA 2: B1 RNA 2 with G27A, G28A, C29A, G53A, U54G
B25: target 1 MT 5'PFS AAG 3'PFS ACG (mixed)
RNA 1: B1 RNA 1
RNA 2: B1 RNA 2 with G27A, G28A, C29G, G53C, U54G
B26: target 1 U3G,C7A (mixed)
RNA 1: B1 RNA 1
RNA 2: B1 RNA 2 with G28U, C29A, C45A, U49G, A52C, G53C, U54G
B27: target 1 insC 3' of 20,insC 3' of 15 (mixed)
RNA 1: B1 RNA 1
RNA 2: GGGAAUGGAUCCACAUCUACGAAUUCGUACCACUAGAGCAGGUUAUCCGCUCACCGAGAUCGGAAGAGCACACGU
B28: target 1 MT 5'PFS AUG 3'PFS UCC (mixed)
RNA 1: B1 RNA 1
RNA 2: B1 RNA 2 with G27A, G28U, C29G, A52U, G53C, U54C
B29: target 1 MT 5'PFS GAA 3'PFS UCU (mixed)
RNA 1: B1 RNA 1
RNA 2: B1 RNA 2 with G28A, C29A, A52U, G53C
B30: target 1 MT 5'PFS AAC 3'PFS UCC (mixed)
RNA 1: B1 RNA 1
RNA 2: B1 RNA 2 with G27A, G28A, A52U, G53C, U54C
B31: target 1 MT 5'PFS GGC 3'PFS AGG (mixed)
RNA 1: B1 RNA 1
RNA 2: B1 RNA 2 with U54G
B32: target 1 MT 5'PFS UCA 3'PFS CAG (mixed)
RNA 1: B1 RNA 1
RNA 2: B1 RNA 2 with G27U, G28C, C29A, A52C, G53A, U54G
B33: target 1 MT 5'PFS AGG 3'PFS AAU (mixed)
RNA 1: B1 RNA 1
RNA 2: B1 RNA 2 with G27A, C29G, G53A
B34: target 1 MT 5'PFS AAA 3'PFS AAC (mixed)
RNA 1: B1 RNA 1
RNA 2: B1 RNA 2 with G27A, G28A, C29A, G53A, U54C
B35: target 1 MT 5'PFS AGG 3'PFS AAA (mixed)
RNA 1: B1 RNA 1
RNA 2: B1 RNA 2 with G27A, C29G, G53A, U54A
B36: target 1 MT 5'PFS AAA 3'PFS AAA (mixed)
RNA 1: B1 RNA 1
RNA 2: B1 RNA 2 with G27A, G28A, C29A, G53A, U54A
B37: target 1 A16U (mixed)
RNA 1: B1 RNA 1
RNA 2: B1 RNA 2 with G28U, C29A, A36U, A52C, G53C, U54G
B38: target 1 MT 5'PFS ACC 3'PFS UCG (mixed)
RNA 1: B1 RNA 1
RNA 2: B1 RNA 2 with G27A, G28C, A52U, G53C, U54G
B39: target 1 MT 5'PFS GCG 3'PFS UCU (mixed)
RNA 1: B1 RNA 1
RNA 2: B1 RNA 2 with G28C, C29G, A52U, G53C
B40: target 1 MT 5'PFS UGC 3'PFS UGU (mixed)
RNA 1: B1 RNA 1
RNA 2: B1 RNA 2 with G27U, A52U

These binders were tested against T1, EsCas13d, nuclease-dead (assay: crRNA (strand 1, pre-loaded); Mg2+; 40 mM Tris-HCl pH 7.5, 150 mM NaCl, 6 mM MgCl2, 1 mM DTT, 0.1% Tween-20, 0.2 mg/ml BSA; 25 C; 10 min per concentration, then washed). Details: tags: His6-TwinStrep-SUMO cleaved; N-terminal SNAP kept (SNAP-Surface 488); label: 3' end held by stalled T7 RNA polymerase.

B1 and B2 are within error of each other in Kd: 17.1 ± 2.45 nM for the first, 19 ± 5.5 nM for the second.

B3 and B4 are within 1.5-fold of each other in Kd: about 47.5 nM for the first, about 51.5 nM for the second.

B5 and B6 are within error of each other in Kd: about 29 nM for the first, 22.5 ± 6.5 nM for the second.

Compared with B7, B8 is 2-fold higher in Kd: 14.3 ± 2.8 nM for the first, 28.3 ± 6.35 nM for the second. The first binds more tightly here.

Going from B9 to B10, the Kd falls from about 52 nM to 23.5 ± 10 nM (2.2-fold). The second binds more tightly here.

B11 and B12 are within error of each other in Kd: 20.9 ± 3.75 nM for the first, 25 ± 7.05 nM for the second.

B13 and B14 are within error of each other in Kd: 21.4 ± 4.45 nM for the first, 17.4 ± 2.25 nM for the second.

B15 and B16 are within error of each other in Kd: 8.2 ± 3.2 nM for the first, 14.7 ± 4.85 nM for the second.

First: B17
Second: B18
The Kd of the first is 2.1-fold higher: 45 ± 11 nM for the first, about 21 nM for the second. The second binds more tightly here.

B19 and B20 are within error of each other in Kd: 16.5 ± 6 nM for the first, 15.5 ± 4.5 nM for the second.

Going from B21 to B22, the Kd rises from 10.6 ± 1.75 nM to about 30.5 nM (2.9-fold). The first binds more tightly here.

Going from B23 to B24, the Kd rises from 11 ± 5.5 nM to 25.5 ± 6.5 nM (2.3-fold).

Going from B25 to B26, the Kd falls from 15.5 ± 4 nM to 7.19 ± 0.31 nM (2.2-fold). The second binds more tightly here.

Going from B27 to B28, the Kd rises from 10.1 ± 0.6 nM to 20 ± 8.5 nM (2-fold). The first binds more tightly here.

Compared with B29, B30 is 1.9-fold lower in Kd: 25 ± 5 nM for the first, about 13.5 nM for the second. The second binds more tightly here.

Going from B31 to B32, the Kd rises from 33.5 ± 5 nM to about 84 nM (2.5-fold).

Going from B33 to B34, the Kd falls from about 60 nM to 30 ± 12 nM (2-fold). The second binds more tightly here.

B35 and B36 are within 1.5-fold of each other in Kd: about 50 nM for the first, 33.5 ± 14.5 nM for the second.

First: B37
Second: B38
The Kd of the first is 6.8-fold higher: 58 ± 9 nM for the first, 8.5 ± 3.6 nM for the second.

Going from B39 to B40, the Kd rises from 13 ± 2.45 nM to 38 ± 13 nM (2.9-fold). The first binds more tightly here.
